Test results: patent US20230322958A1 (Genentech, published 2023)

T1: huNotch2-EGF6-10 (human, UniProt Q04721 219-418)
T1 construct: also called human Notch2 EGF6-10
T1 sequence: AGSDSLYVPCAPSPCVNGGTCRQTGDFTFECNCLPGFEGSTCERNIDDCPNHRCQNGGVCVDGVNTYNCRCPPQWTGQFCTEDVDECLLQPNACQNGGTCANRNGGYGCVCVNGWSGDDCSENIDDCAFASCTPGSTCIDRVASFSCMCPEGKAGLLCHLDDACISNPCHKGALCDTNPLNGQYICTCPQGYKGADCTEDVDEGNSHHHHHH


What was measured:
[1] = molecular target: T2, human Notch2 on U-87 MG cells (human, UniProt Q04721 26-2471); assay: cell-based or functional assay
huNotch2-EGF6-10 [2] = molecular target: T1, huNotch2-EGF6-10; assay: SPR BIAcore, separate experiment, substantially as for Table 4
Protocol: (§1) The binding affinities of the antibodies was determined by BIAcore™ T200 machine. Rabbit antibodies were expressed as chimeric antibodies with rabbit variable domains and human constant domains. Rat antibodies were expressed as chimeric antibodies with rat variable domains and human constant regions. Humanized antibodies were expressed in the human IgG1 backbone. For kinetics measurements, antibodies were captured on research grade protein A chip (GE Healthcare) to achieve approximately 300 RU. Ten-fold serial dilutions of huNotch2-EGF6-10 were injected in HBS-P buffer with additional 3 mM CaCl₂ at 37° C. with a flow rate of 100 μL/min. Association rates (ka) and dissociation rates (kd) were calculated using a 1:1 Langmuir binding model (BIAcore™ T200 Evaluation Software version 2.0). The equilibrium dissociation constant (KD) was calculated as the ratio kd/ka.
In a separate experiment, the binding affinities of the humanized versions of the rat 3107 antibody were determined, substantially as described above.

[3] = molecular target: T2, human Notch2 on U-87 MG cells; assay: cell-based or functional assay; remark: listed apart in the source
huNotch2-EGF6-10 [4] = molecular target: T1, huNotch2-EGF6-10; assay: SPR BIAcore T200, antibody captured on protein A, 37 C
Protocol: as §1

T2 sequence (Q04721 26-2471): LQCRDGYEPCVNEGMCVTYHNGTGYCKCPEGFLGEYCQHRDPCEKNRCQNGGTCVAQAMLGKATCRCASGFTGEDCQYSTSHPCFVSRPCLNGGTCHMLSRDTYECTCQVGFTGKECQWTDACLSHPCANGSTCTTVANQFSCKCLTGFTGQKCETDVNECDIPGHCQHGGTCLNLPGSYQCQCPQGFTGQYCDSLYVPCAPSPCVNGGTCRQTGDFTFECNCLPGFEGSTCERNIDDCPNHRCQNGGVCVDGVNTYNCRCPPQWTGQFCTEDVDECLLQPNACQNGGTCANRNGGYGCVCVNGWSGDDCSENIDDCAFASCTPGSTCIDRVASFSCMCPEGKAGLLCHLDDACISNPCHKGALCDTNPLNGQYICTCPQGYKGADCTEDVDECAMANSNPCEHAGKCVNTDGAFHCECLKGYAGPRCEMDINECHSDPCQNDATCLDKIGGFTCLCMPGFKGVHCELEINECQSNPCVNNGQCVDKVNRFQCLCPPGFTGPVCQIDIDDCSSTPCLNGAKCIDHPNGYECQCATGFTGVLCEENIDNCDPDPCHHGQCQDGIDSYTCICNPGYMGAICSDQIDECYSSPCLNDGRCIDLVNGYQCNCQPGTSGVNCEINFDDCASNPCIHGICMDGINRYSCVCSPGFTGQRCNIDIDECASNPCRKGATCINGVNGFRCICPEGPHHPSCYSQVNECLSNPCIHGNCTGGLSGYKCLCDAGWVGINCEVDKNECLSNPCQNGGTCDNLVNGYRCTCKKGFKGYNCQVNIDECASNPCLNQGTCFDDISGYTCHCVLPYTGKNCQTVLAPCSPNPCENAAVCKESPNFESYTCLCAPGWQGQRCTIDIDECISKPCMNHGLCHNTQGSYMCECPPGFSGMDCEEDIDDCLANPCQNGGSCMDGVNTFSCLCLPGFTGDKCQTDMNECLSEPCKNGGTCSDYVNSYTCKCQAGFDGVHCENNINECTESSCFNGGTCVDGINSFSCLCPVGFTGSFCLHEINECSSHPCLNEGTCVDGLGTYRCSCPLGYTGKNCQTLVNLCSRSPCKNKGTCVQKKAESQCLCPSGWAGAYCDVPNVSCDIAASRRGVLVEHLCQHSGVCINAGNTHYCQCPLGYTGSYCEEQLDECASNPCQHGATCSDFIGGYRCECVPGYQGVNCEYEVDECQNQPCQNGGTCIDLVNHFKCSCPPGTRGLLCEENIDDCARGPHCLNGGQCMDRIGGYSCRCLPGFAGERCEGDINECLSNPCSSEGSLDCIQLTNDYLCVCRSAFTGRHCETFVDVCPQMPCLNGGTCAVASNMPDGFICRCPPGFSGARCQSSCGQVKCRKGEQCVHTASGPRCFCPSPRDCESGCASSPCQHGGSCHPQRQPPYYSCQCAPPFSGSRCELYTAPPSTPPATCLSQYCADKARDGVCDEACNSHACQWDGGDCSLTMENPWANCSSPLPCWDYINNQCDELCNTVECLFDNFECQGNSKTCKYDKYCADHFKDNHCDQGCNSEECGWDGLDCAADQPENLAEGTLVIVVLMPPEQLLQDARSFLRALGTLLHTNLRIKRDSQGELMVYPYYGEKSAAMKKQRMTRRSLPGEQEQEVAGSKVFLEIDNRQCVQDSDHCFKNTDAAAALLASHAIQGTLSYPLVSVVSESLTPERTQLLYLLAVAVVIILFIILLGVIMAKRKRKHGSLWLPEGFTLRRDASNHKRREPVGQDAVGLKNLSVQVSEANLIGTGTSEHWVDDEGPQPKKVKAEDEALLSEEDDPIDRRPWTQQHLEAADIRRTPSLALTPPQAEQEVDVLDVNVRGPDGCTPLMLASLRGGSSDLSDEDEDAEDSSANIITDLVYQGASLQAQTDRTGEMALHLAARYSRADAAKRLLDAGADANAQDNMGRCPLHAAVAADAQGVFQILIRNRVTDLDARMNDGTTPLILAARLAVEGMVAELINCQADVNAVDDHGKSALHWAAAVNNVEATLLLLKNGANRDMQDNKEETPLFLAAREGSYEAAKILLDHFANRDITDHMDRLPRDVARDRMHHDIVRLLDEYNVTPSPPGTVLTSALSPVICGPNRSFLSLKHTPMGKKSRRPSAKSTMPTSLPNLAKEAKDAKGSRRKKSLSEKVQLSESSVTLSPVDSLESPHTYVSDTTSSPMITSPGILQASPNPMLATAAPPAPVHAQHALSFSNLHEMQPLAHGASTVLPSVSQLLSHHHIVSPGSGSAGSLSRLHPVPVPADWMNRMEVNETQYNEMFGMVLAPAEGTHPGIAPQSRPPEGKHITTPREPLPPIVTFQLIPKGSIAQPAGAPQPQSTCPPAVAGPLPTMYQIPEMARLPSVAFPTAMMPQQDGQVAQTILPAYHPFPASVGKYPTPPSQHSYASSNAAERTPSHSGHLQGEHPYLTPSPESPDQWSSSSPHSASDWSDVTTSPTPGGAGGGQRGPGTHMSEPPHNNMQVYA

Row | Binder | Jagged1 IC50 [1] [nM] | Kd (huNotch2-EGF6-10 [2]) [nM] | koff (huNotch2-EGF6-10 [2]) [s⁻¹] | kon (huNotch2-EGF6-10 [2]) [M⁻¹ s⁻¹] | DLL Inhibition (IC50) [3] [nM] | Kd (huNotch2-EGF6-10 [4]) [nM] | koff (huNotch2-EGF6-10 [4]) [s⁻¹] | kon (huNotch2-EGF6-10 [4]) [M⁻¹ s⁻¹] | Jag1 Inhibition (IC50) [3] [nM]
1 | hu.3107.L6H12 (antibody, V domains shown, also called hu.Notch-3107.L6H12) VH: EVQLVQSGAEVKKPGASVKVSCKASGYTFSNYVIHWVRQAPGQGPEWTGYIIPGSGGTKFNEKFKGRATSTVDTSSTTAYMELSRLRSDDTVVYYCARDGAGSFTYWGQGTLVTVSS VL: DVVMTQSPDSLAVSLGERATINCRSSQSLVHSDGNTYLHWFQQKPGQPPKLLIYRISNRFSGVPDRFSGSGSGTDFTLTISSLQAEDVAVYYCLQSTHFPDTFGGGTKVEIK | 4.71 | 9.79 | 0.00404 | 413000 | – | – | – | – | –
2 | 1B2.v104.huFab.LC_K149C.dPEG6_dimer (other, engineered Cys (K149C) joined through maleimide to Bis-Mal-PEG6) heavy: EVQLVESGGGLVQPGGSLKLSCAVSGFTFSDFYMEWVRQASGKGLEWVAAQRNKANDFSIVYSASVKDRFTISRDDSKSTLYLQMNSLKTEDTAVYYCSRDGGKLALDAWGQGTLVTVSSASTKGPSVFPLAPSSKSTSGGTAALGCLVKDYFPEPVTVSWNSGALTSGVHTFPAVLQSSGLYSLSSVVTVPSSSLGTQTYICNVNHKPSNTKVDKKVEPKSCD light: DIQMTQSPSSVSASVGDRVTITCQTSEDIYSGLAWYQQKPGKSPKLLIYGASRLQDGVPSRFSGSGSGTDYTLTISSLQPEDFATYYCQQGFKYPLTFGGGTKVEIKRTVAAPSVFIFPPSDEQLKSGTASVVCLLNNFYPREAKVQWCVDNALQSGNSQESVTEQDSKDSTYSLSSTLTLSKADYEKHKVYACEVTHQGLSSPVTKSFNRGEC | – | – | – | – | > 1000 | – | – | – | –
3 | hu1B2.L7H10 (antibody, V domains shown, Human IgG1 backbone) VH: EVQLVESGGGLVQPGGSLKLSCAVSGFTFSDFYMEWVRQASGKGLEWVAASRNKANDFSIVYSASVKDRFTISRDDSKSTAYLQMNSLKTEDTAVYYCSRDSGRWGLDAWGQGTLVTVSS VL: DIQMTQSPSSVSASVGDRVTITCQTSEDIYSGLAWYQQKPGKSPKLLIYGASRLQDGVPSRFSGSGSGTDYTLTISSLQPEDFATYYCQQGFKYPLTFGGGTKVEIK | – | – | – | – | – | 9.94 | 0.00415 | 418000 | –
4 | 1B2.v104.huFab.LC_K149C (Fab, V domains shown) VH: EVQLVESGGGLVQPGGSLKLSCAVSGFTFSDFYMEWVRQASGKGLEWVAAQRNKANDFSIVYSASVKDRFTISRDDSKSTLYLQMNSLKTEDTAVYYCSRDGGKLALDAWGQGTLVTVSS VL: DIQMTQSPSSVSASVGDRVTITCQTSEDIYSGLAWYQQKPGKSPKLLIYGASRLQDGVPSRFSGSGSGTDYTLTISSLQPEDFATYYCQQGFKYPLTFGGGTKVEIKR | – | – | – | – | 50 | – | – | – | 120
5 | hu1B2.L7H14 (antibody, V domains shown, Human IgG1 backbone; also called hu.1B2.DFS.H14L7) VH: EVQLVESGGGLVQPGGSLKLSCAVSGFTFSDFYMEWVRQASGKGLEWVAASRNKANDFSIVYSASVKDRFTISRDDSKSTLYLQMNSLKTEDTAVYYCSRDSGRWGLDAWGQGTLVTVSS VL: DIQMTQSPSSVSASVGDRVTITCQTSEDIYSGLAWYQQKPGKSPKLLIYGASRLQDGVPSRFSGSGSGTDYTLTISSLQPEDFATYYCQQGFKYPLTFGGGTKVEIK | – | – | – | – | – | 6.13 | 0.00134 | 219000 | –
6 | hu.3107.L1H14 (antibody, V domains shown, also called hu.Notch-3107.L1H14) VH: EVQLVQSGAEVKKPGESLKISCKGSGYTFSNYVIHWVRQMPGKGPEWTGYIIPGSGGTKFNEKFKGQATISVDKSSTTAYLQWSSLKASDTAMYYCARDGAGSFTYWGQGTLVTVSS VL: DVVMTQSPLSLPVTLGQPASISCRSSQSLVHSDGNTYLHWFQQRPGQSPRLLIYRISNRFSGVPDRFSGSGSGTDFTLKISRVEAEDVGVYYCLQSTHFPDTFGGGTKVEIK | 6.95 | 17.5 | 0.00631 | 360000 | – | – | – | – | –
7 | hu.3107.L6H14 (antibody, V domains shown, also called hu.Notch-3107.L6H14) VH: EVQLVQSGAEVKKPGESLKISCKGSGYTFSNYVIHWVRQMPGKGPEWTGYIIPGSGGTKFNEKFKGQATISVDKSSTTAYLQWSSLKASDTAMYYCARDGAGSFTYWGQGTLVTVSS VL: DVVMTQSPDSLAVSLGERATINCRSSQSLVHSDGNTYLHWFQQKPGQPPKLLIYRISNRFSGVPDRFSGSGSGTDFTLTISSLQAEDVAVYYCLQSTHFPDTFGGGTKVEIK | 6.65 | 10 | 0.00354 | 354000 | – | – | – | – | –
8 | hu.3107.L1H12 (antibody, V domains shown, also called hu.Notch-3107.L1H12) VH: EVQLVQSGAEVKKPGASVKVSCKASGYTFSNYVIHWVRQAPGQGPEWTGYIIPGSGGTKFNEKFKGRATSTVDTSSTTAYMELSRLRSDDTVVYYCARDGAGSFTYWGQGTLVTVSS VL: DVVMTQSPLSLPVTLGQPASISCRSSQSLVHSDGNTYLHWFQQRPGQSPRLLIYRISNRFSGVPDRFSGSGSGTDFTLKISRVEAEDVGVYYCLQSTHFPDTFGGGTKVEIK | 7.85 | 14.3 | 0.00542 | 380000 | – | – | – | – | –
9 | hu.3107.L1H13 (antibody, V domains shown, also called hu.Notch-3107.L1H13) VH: EVQLVQSGAEVKKPGASVKVSCKASGYTFSNYVIHWVRQAPGQGPEWTGYIIPGSGGTKFNEKFKGRATSTVDTSITTAYMELSRLRSDDTVVYYCARDGAGSFTYWGQGTLVTVSS VL: DVVMTQSPLSLPVTLGQPASISCRSSQSLVHSDGNTYLHWFQQRPGQSPRLLIYRISNRFSGVPDRFSGSGSGTDFTLKISRVEAEDVGVYYCLQSTHFPDTFGGGTKVEIK | 4.92 | 15.5 | 0.00587 | 379000 | – | – | – | – | –
10 | hu.3107.L1H15 (antibody, V domains shown, also called hu.Notch-3107.L1H15) VH: EVQLVQSGAEVKKPGESLKISCKGSGYTFSNYVIHWVRQMPGKGPEWTGYIIPGSGGTKFNEKFKGQATISVDKSITTAYLQWSSLKASDTAMYYCARDGAGSFTYWGQGTLVTVSS VL: DVVMTQSPLSLPVTLGQPASISCRSSQSLVHSDGNTYLHWFQQRPGQSPRLLIYRISNRFSGVPDRFSGSGSGTDFTLKISRVEAEDVGVYYCLQSTHFPDTFGGGTKVEIK | 6.08 | 17.9 | 0.00634 | 355000 | – | – | – | – | –

More lines, in order of falling Kd (huNotch2-EGF6-10 [2]), values ahead:

Row | Jagged1 IC50 [1] [nM] | Kd (huNotch2-EGF6-10 [2]) [nM] | koff (huNotch2-EGF6-10 [2]) [s⁻¹] | kon (huNotch2-EGF6-10 [2]) [M⁻¹ s⁻¹] | DLL Inhibition (IC50) [3] [nM] | Kd (huNotch2-EGF6-10 [4]) [nM] | koff (huNotch2-EGF6-10 [4]) [s⁻¹] | kon (huNotch2-EGF6-10 [4]) [M⁻¹ s⁻¹] | Jag1 Inhibition (IC50) [3] [nM] | Binder
11 | 9.16 | 11.6 | 0.00407 | 350000 | – | – | – | – | – | hu.3107.L7H15 (antibody, V domains shown, also called hu.Notch-3107.L7H15) VH: EVQLVQSGAEVKKPGESLKISCKGSGYTFSNYVIHWVRQMPGKGPEWTGYIIPGSGGTKFNEKFKGQATISVDKSITTAYLQWSSLKASDTAMYYCARDGAGSFTYWGQGTLVTVSS VL: DIVMTQSPDSLAVSLGERATINCRSSQSLVHSDGNTYLHWYQQKPGQPPKLLIYRISNRFSGVPDRFSGSGSGTDFTLTISSLQAEDVAVYYCLQSTHFPDTFGGGTKVEIK
12 | 10.5 | 10.4 | 0.00359 | 346000 | – | – | – | – | – | hu.3107.L7H14 (antibody, V domains shown, also called hu.Notch-3107.L7H14) VH: EVQLVQSGAEVKKPGESLKISCKGSGYTFSNYVIHWVRQMPGKGPEWTGYIIPGSGGTKFNEKFKGQATISVDKSSTTAYLQWSSLKASDTAMYYCARDGAGSFTYWGQGTLVTVSS VL: DIVMTQSPDSLAVSLGERATINCRSSQSLVHSDGNTYLHWYQQKPGQPPKLLIYRISNRFSGVPDRFSGSGSGTDFTLTISSLQAEDVAVYYCLQSTHFPDTFGGGTKVEIK
13 | 5.94 | 9.94 | 0.00353 | 355000 | – | – | – | – | – | hu.3107.L7H13 (antibody, V domains shown, also called hu.Notch-3107.L7H13) VH: EVQLVQSGAEVKKPGASVKVSCKASGYTFSNYVIHWVRQAPGQGPEWTGYIIPGSGGTKFNEKFKGRATSTVDTSITTAYMELSRLRSDDTVVYYCARDGAGSFTYWGQGTLVTVSS VL: DIVMTQSPDSLAVSLGERATINCRSSQSLVHSDGNTYLHWYQQKPGQPPKLLIYRISNRFSGVPDRFSGSGSGTDFTLTISSLQAEDVAVYYCLQSTHFPDTFGGGTKVEIK
14 | 11 | 9.54 | 0.00367 | 384000 | – | – | – | – | – | hu.3107.L7H12 (antibody, V domains shown, also called hu.Notch-3107.L7H12) VH: EVQLVQSGAEVKKPGASVKVSCKASGYTFSNYVIHWVRQAPGQGPEWTGYIIPGSGGTKFNEKFKGRATSTVDTSSTTAYMELSRLRSDDTVVYYCARDGAGSFTYWGQGTLVTVSS VL: DIVMTQSPDSLAVSLGERATINCRSSQSLVHSDGNTYLHWYQQKPGQPPKLLIYRISNRFSGVPDRFSGSGSGTDFTLTISSLQAEDVAVYYCLQSTHFPDTFGGGTKVEIK
15 | 6.42 | 9.47 | 0.00424 | 448000 | – | – | – | – | – | hu.3107.L6H13 (antibody, V domains shown, also called hu.Notch-3107.L6H13) VH: EVQLVQSGAEVKKPGASVKVSCKASGYTFSNYVIHWVRQAPGQGPEWTGYIIPGSGGTKFNEKFKGRATSTVDTSITTAYMELSRLRSDDTVVYYCARDGAGSFTYWGQGTLVTVSS VL: DVVMTQSPDSLAVSLGERATINCRSSQSLVHSDGNTYLHWFQQKPGQPPKLLIYRISNRFSGVPDRFSGSGSGTDFTLTISSLQAEDVAVYYCLQSTHFPDTFGGGTKVEIK
16 | 8.03 | 9.23 | 0.00365 | 396000 | – | – | – | – | – | hu.3107.L6H15 (antibody, V domains shown, also called hu.Notch-3107.L6H15) VH: EVQLVQSGAEVKKPGESLKISCKGSGYTFSNYVIHWVRQMPGKGPEWTGYIIPGSGGTKFNEKFKGQATISVDKSITTAYLQWSSLKASDTAMYYCARDGAGSFTYWGQGTLVTVSS VL: DVVMTQSPDSLAVSLGERATINCRSSQSLVHSDGNTYLHWFQQKPGQPPKLLIYRISNRFSGVPDRFSGSGSGTDFTLTISSLQAEDVAVYYCLQSTHFPDTFGGGTKVEIK
